According to US20210002370A1:

Target: PD-L1 extracellular domain expressed in HEK293 cells (human) (UniProt Q9NZQ7)
Test: gradient dilution ELISA on coated PD-L1, serum dilution 200

PD-L1 extracellular domain expressed in HEK293 cells (human), sequence (Q9NZQ7 19-238): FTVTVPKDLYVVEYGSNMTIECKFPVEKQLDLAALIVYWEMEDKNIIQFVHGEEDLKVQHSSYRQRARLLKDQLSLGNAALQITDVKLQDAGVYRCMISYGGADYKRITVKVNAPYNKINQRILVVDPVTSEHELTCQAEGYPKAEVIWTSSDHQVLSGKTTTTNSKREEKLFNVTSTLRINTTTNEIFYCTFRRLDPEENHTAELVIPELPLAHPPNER

ELISA OD: 0.631 OD450 nm
Substance: Alpaca serum before immunization
